Test results published in patent US20230002480A1.

Experiments:
Test in all cases: cell-based or functional assay
[1] = target: HIV-1 Env of pseudovirus 1012_11_TC21_3257 (HIV-1)
[2] = target: HIV-1 Env of pseudovirus ZM135M.PL10a (HIV-1)
[3] = target: HIV-1 Env of pseudovirus Ce1086_B2 (HIV-1)
[4] = target: HIV-1 Env of pseudovirus CNE21 (HIV-1)
[5] = target: HIV-1 Env of pseudovirus Ce1176_A3 (HIV-1)
[6] = target: HIV-1 Env of pseudovirus CNE20 (HIV-1)
[7] = target: HIV-1 Env of pseudovirus TRJO4551.58 (HIV-1)
[8] = target: HIV-1 Env of pseudovirus CNE17 (HIV-1)
[9] = target: HIV-1 Env of pseudovirus 1056_10_TA11_1826 (HIV-1)
[10] = target: HIV-1 Env of pseudovirus CNE52 (HIV-1)
[11] = target: HIV-1 Env of pseudovirus 1006_11_C3_1601 (HIV-1)
[12] = target: HIV-1 Env of pseudovirus CNE19 (HIV-1)
[13] = target: HIV-1 Env of pseudovirus Du172.17 (HIV-1)
[14] = target: HIV-1 Env of pseudovirus Q842.d12 (HIV-1)
[15] = target: HIV-1 Env of pseudovirus ZM233M.PB6 (HIV-1)
[16] = target: HIV-1 Env of pseudovirus 7030102001E5(Rev-) (HIV-1)
[17] = target: HIV-1 Env of pseudovirus 1054_07_TC4_1499 (HIV-1)
[18] = target: HIV-1 Env of pseudovirus Ce704809221_1B3 (HIV-1)
[19] = target: HIV-1 Env of pseudovirus SC05_8C11_2344 (HIV-1)
[20] = target: HIV-1 Env of pseudovirus 249M B10 (HIV-1)
[21] = target: HIV-1 Env of pseudovirus ZM53M.PB12 (HIV-1)
[22] = target: HIV-1 Env of pseudovirus AC10.0.29 (HIV-1)
[23] = target: HIV-1 Env of pseudovirus Ce703010054_2A2 (HIV-1)
[24] = target: HIV-1 Env of pseudovirus T250-4 (HIV-1)

Which results are given for N49P9.1 (antibody)?
IC50 [1]: 0.382 µg/mL; IC80 [1]: 1.45 µg/mL; MPI [1]: 100; IC50 [2]: 0.332 µg/mL; IC80 [2]: 1.53 µg/mL; MPI [2]: 98; IC50 [3]: 0.814 µg/mL; IC80 [3]: 4.08 µg/mL; MPI [3]: 96; IC50 [4]: > 50 µg/mL; IC80 [4]: > 50 µg/mL; MPI [4]: 15; IC50 [5]: 0.44 µg/mL; IC80 [5]: 0.998 µg/mL; MPI [5]: 100; IC50 [6]: 1.51 µg/mL; IC80 [6]: 16.4 µg/mL; MPI [6]: 90; IC50 [7]: 0.035 µg/mL; IC80 [7]: 0.12 µg/mL; MPI [7]: 100; IC50 [8]: 0.251 µg/mL; IC80 [8]: 1.23 µg/mL; MPI [8]: 100; IC50 [9]: 0.617 µg/mL; IC80 [9]: 3.03 µg/mL; MPI [9]: 100; IC50 [10]: 0.043 µg/mL; IC80 [10]: 0.122 µg/mL; MPI [10]: 100; IC50 [11]: 0.135 µg/mL; IC80 [11]: 0.448 µg/mL; MPI [11]: 100; IC50 [12]: 0.033 µg/mL; IC80 [12]: 0.146 µg/mL; MPI [12]: 100; IC50 [13]: 0.026 µg/mL; IC80 [13]: 0.182 µg/mL; MPI [13]: 100; IC50 [14]: 0.027 µg/mL; IC80 [14]: 0.075 µg/mL; MPI [14]: 100; IC50 [15]: > 50 µg/mL; IC80 [15]: > 50 µg/mL; MPI [15]: 6; IC50 [16]: 0.635 µg/mL; IC80 [16]: 2.02 µg/mL; MPI [16]: 100; IC50 [17]: 1.8 µg/mL; IC80 [17]: 7.2 µg/mL; MPI [17]: 100; IC50 [18]: 0.162 µg/mL; IC80 [18]: 0.661 µg/mL; MPI [18]: 100; IC50 [19]: 1.3 µg/mL; IC80 [19]: 4.39 µg/mL; MPI [19]: 100; IC50 [20]: 0.305 µg/mL; IC80 [20]: 1.64 µg/mL; MPI [20]: 96; IC50 [21]: 0.447 µg/mL; IC80 [21]: 1.29 µg/mL; MPI [21]: 100; IC50 [22]: 0.36 µg/mL; IC80 [22]: 1.88 µg/mL; MPI [22]: 99; IC50 [23]: 0.433 µg/mL; IC80 [23]: 3.18 µg/mL; MPI [23]: 96

Which results are given for 10E8 (antibody)?
IC50, titer in TZM.bl cells [1]: 0.244 µg/mL; IC80, titer in TZM.bl cells [1]: 4.21 µg/mL; IC50, titer in TZM.bl cells [2]: 0.171 µg/mL; IC80, titer in TZM.bl cells [2]: 1.19 µg/mL; IC50, titer in TZM.bl cells [3]: 1.16 µg/mL; IC80, titer in TZM.bl cells [3]: 6.93 µg/mL; IC50, titer in TZM.bl cells [4]: 1.9 µg/mL; IC80, titer in TZM.bl cells [4]: > 10 µg/mL; IC50, titer in TZM.bl cells [5]: 0.867 µg/mL; IC80, titer in TZM.bl cells [5]: 3.92 µg/mL; IC50, titer in TZM.bl cells [6]: 1.25 µg/mL; IC80, titer in TZM.bl cells [6]: 6.58 µg/mL; IC50, titer in TZM.bl cells [7]: 0.475 µg/mL; IC80, titer in TZM.bl cells [7]: 4.78 µg/mL; IC50, titer in TZM.bl cells [8]: 1.11 µg/mL; IC80, titer in TZM.bl cells [8]: 5.25 µg/mL; IC50, titer in TZM.bl cells [9]: 0.134 µg/mL; IC80, titer in TZM.bl cells [9]: 1.03 µg/mL; IC50, titer in TZM.bl cells [10]: 0.304 µg/mL; IC80, titer in TZM.bl cells [10]: 3.06 µg/mL; IC50, titer in TZM.bl cells [11]: 0.172 µg/mL; IC80, titer in TZM.bl cells [11]: 3 µg/mL; IC50, titer in TZM.bl cells [12]: 0.666 µg/mL; IC80, titer in TZM.bl cells [12]: 6.49 µg/mL; IC50, titer in TZM.bl cells [13]: 0.109 µg/mL; IC80, titer in TZM.bl cells [13]: 0.837 µg/mL; IC50, titer in TZM.bl cells [14]: 4.19 µg/mL; IC80, titer in TZM.bl cells [14]: > 10 µg/mL; IC50, titer in TZM.bl cells [15]: 0.442 µg/mL; IC80, titer in TZM.bl cells [15]: 2.39 µg/mL; IC50, titer in TZM.bl cells [16]: 6.71 µg/mL; IC80, titer in TZM.bl cells [16]: > 10 µg/mL; IC50, titer in TZM.bl cells [17]: 0.046 µg/mL; IC80, titer in TZM.bl cells [17]: 0.305 µg/mL; IC50, titer in TZM.bl cells [18]: 0.058 µg/mL; IC80, titer in TZM.bl cells [18]: 0.319 µg/mL; IC50, titer in TZM.bl cells [19]: 0.665 µg/mL; IC80, titer in TZM.bl cells [19]: 2.74 µg/mL; IC50, titer in TZM.bl cells [20]: 1.27 µg/mL; IC80, titer in TZM.bl cells [20]: 9.05 µg/mL; IC50, titer in TZM.bl cells [21]: 3.98 µg/mL; IC80, titer in TZM.bl cells [21]: > 10 µg/mL; IC50, titer in TZM.bl cells [22]: 0.132 µg/mL; IC80, titer in TZM.bl cells [22]: 1.53 µg/mL; IC50, titer in TZM.bl cells [23]: 2.3 µg/mL; IC80, titer in TZM.bl cells [23]: 8.58 µg/mL; IC50, titer in TZM.bl cells [24]: 1.35 µg/mL; IC80, titer in TZM.bl cells [24]: 8.13 µg/mL
